This is an account of results in patent US20260167737A1 (BIGHAT BIOSCIENCES, published 2026).

Where a chain is given by its changes, count along the chain named.

One experiment has as its target CDH17 on SNU16 cells (UniProt Q12864).
The target in experiment [1] is T1, CDH17 (UniProt Q12864 23-787, limits assumed).
T1 construct: also called cadherin 17
T1 sequence (looked up): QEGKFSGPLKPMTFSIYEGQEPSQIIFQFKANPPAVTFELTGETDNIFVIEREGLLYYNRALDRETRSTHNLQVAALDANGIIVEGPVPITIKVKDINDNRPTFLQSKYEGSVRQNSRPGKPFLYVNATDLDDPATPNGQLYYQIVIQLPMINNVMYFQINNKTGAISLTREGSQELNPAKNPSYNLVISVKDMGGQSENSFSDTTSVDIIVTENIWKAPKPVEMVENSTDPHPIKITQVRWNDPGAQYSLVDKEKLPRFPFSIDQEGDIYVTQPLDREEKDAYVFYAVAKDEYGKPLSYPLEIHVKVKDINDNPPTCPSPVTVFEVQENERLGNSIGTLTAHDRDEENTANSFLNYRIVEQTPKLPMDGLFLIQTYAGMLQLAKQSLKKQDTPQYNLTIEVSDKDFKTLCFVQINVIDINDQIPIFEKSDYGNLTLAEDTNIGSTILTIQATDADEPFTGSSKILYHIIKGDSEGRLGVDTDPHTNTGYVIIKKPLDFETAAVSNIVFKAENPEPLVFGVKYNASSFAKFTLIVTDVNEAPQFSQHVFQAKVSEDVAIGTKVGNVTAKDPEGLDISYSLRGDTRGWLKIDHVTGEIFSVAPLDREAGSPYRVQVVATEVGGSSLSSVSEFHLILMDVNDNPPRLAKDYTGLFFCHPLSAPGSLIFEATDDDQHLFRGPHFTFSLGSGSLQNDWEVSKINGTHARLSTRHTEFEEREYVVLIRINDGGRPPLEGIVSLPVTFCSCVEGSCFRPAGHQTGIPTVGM

Experiment [2] addresses T1, CDH17. Put plainly: method not stated; KD at pH 7.4.

In turn, isotype vedotin (Fc fusion) returned a cytotoxicity IC50 of the negative control (no asterisk: isotype control vedotin ADC), SNU16 (gastric) cells with CDH17 on SNU16 cells above 100 nM. In the experiment with CDH17 [1], this molecule had a cytotoxicity IC50 of the negative control (no asterisk: isotype control vedotin ADC), AsPC1 (PDAC) cells above 100 nM; a cytotoxicity IC50 of the negative control (no asterisk: isotype control vedotin ADC), CAPAN2 (PDAC) cells (ABC <LLOD) above 100 nM; a cytotoxicity IC50 of the negative control (no asterisk: isotype control vedotin ADC), LoVo (CRC) cells (ABC <LLOD) above 100 nM; a cytotoxicity IC50 of the negative control (no asterisk: isotype control vedotin ADC), NCI-H508 (CRC) cells of 0.301 nM. In the experiment with CDH17 [1], this molecule had a cytotoxicity IC50 of the negative control (no asterisk: isotype control vedotin ADC), SW403 (CRC) cells above 100 nM and a cytotoxicity IC50 of the negative control (no asterisk: isotype control vedotin ADC), SW837 (CRC) cells (ABC <LLOD) above 100 nM.

B1: CDH17_vhh_0001 (VHH)
VHH: QVQLQESGGGLVQPGGSTRLSCVSSRTFSYYDMGWFRQAPGKEREFVALLSWNGENAEYSDSVMGRFTVSRGNTQNSVNLQMNNLKPEDTGIYYCAVTHGGARSVRSWGQGTQVTVSS
notes: also called parental VHH-0001
As for B1, the Kd with CDH17 [2] is 27.2 nM.

B2: CDH17_vhh_0173 (VHH)
VHH: B1 VHH with N53R, E55N, S60R, H99Y
As to B2, the Kd with CDH17 [2] was determined as 4.94 nM.

B3: CDH17_vhh_0948 (VHH)
VHH: B1 VHH with N53R, E55N, S62D, M64H, H99Y, S107L
In the case of B3, in the experiment with CDH17 [2], the Kd worked out at 3.94 nM.

B4: CDH17_vhh_0271 (VHH)
VHH: B1 VHH with N53R, E55N, T68V, H99Y, G101V
The molecule B4 displayed a Kd with CDH17 [2] of 2.82 nM.

B5: CDH17_vhh_0632 (VHH)
VHH: B1 VHH with N53R, N56R, H99Y
Consider B5, for which the dissociation constant Kd with CDH17 [2] is 4.9 nM.

B6: CDH17_vhh_0677 (VHH)
VHH: B1 VHH with N53R, E55N, S62D, H99Y, G101K
In turn, B6 displayed a dissociation constant (Kd) with CDH17 [2] of 2.65 nM.

B7: CDH17_vhh_0946 (VHH)
VHH: B1 VHH with N53R, E55N, S62F, H99Y, G101V, S107L
For B7, in the experiment with CDH17 [2], the Kd came out at 2.04 nM.

B8: CDH17_vhh_0949 (VHH)
VHH: B1 VHH with N53R, E55N, S62D, H99Y, G101K, S107L
Molecule B8 showed a Kd in the experiment with CDH17 [2] of 2.01 nM.

B9: CDH17_vhh_0274 (VHH)
VHH: B1 VHH with N53R, E55N, T68V, H99Y, R103K
For the molecule B9, the Kd with CDH17 [2] was found to be 4.35 nM.

B10: CDH17_vhh_0689 (VHH)
VHH: B1 VHH with N53R, E55N, S62F, H99Y, S107L
On to B10, for which the affinity with CDH17 [2], expressed as Kd, was 4.83 nM.

B11: CDH17_vhh_0629 (VHH)
VHH: B1 VHH with S51D, N53R, H99Y
B11 returned a Kd with CDH17 [2] of 4.96 nM.

B12: CDH17_vhh_0950 (VHH)
VHH: B1 VHH with N53R, E55N, A57S, M64H, H99Y, S107L
In the experiment with CDH17 [2], B12 came in with a Kd of 3.81 nM.

B13: CDH17_vhh_0591 (VHH)
VHH: B1 VHH with N53R, E55N, H99Y, S107L
Consider B13, for which the Kd in the experiment with CDH17 [2] worked out at 3.21 nM.

B14: CDH17_vhh_0653 (VHH)
VHH: B1 VHH with N53R, E55I, S62T, T68V, H99Y, G101V
B14 showed an equilibrium dissociation constant (Kd) with CDH17 [2] of 3.12 nM.

B15: CDH17_vhh_0951 (VHH)
VHH: B1 VHH with N53R, E55N, S62D, H99Y, G101T, S107L
In the experiment with CDH17 [2], B15 gave a Kd of 1.81 nM.

B16: CDH17_vhh_0670 (VHH)
VHH: B1 VHH with S51D, N53R, E55N, N56Y, H99Y
For the molecule B16, the Kd with CDH17 [2] was 4.53 nM.

B17: CDH17_vhh_0646 (VHH)
VHH: B1 VHH with N53R, E55N, S60R, H99Y, S107L
Molecule B17 yielded a Kd with CDH17 [2] of 2.63 nM.

B18: CDH17_vhh_0587 (VHH)
VHH: B1 VHH with N53R, E55I, H99Y
For B18, in the experiment with CDH17 [2], the Kd is 5.01 nM.

B19: CDH17_vhh_0651 (VHH)
VHH: B1 VHH with A39Y, N53R, E55N, T68V, H99L, G101V
As for B19, the Kd in the experiment with CDH17 [2] worked out at 3.71 nM.

B20: CDH17_vhh_0648 (VHH)
VHH: B1 VHH with N53R, E55N, T68V, H99Y, G101V, R103K
As for B20, the Kd in the experiment with CDH17 [2] was determined as 2.18 nM.

B21: CDH17_vhh_0267 (VHH)
VHH: B1 VHH with Q38Y, N53R, E55N, S60A, H99Y
With B21, the Kd with CDH17 [2] came out at 5.08 nM.

B22: CDH17_vhh_0395 (VHH)
VHH: B1 VHH with N53R, E55N, D61E, H99Y
For B22, binding with CDH17 [2] was put at a Kd of 5.47 nM.

B23: CDH17_vhh_0645 (VHH)
VHH: B1 VHH with A39Y, N53R, E55N, N56Y, T68V, H99Y
In turn, B23 displayed a Kd in the experiment with CDH17 [2] of 5.17 nM.

B24: CDH17_vhh_0622 (VHH)
VHH: B1 VHH with R26I, N53R, H99Y
In the experiment with CDH17 [2], B24 had a Kd of 2.93 nM.

B25: CDH17_vhh_0652 (VHH)
VHH: B1 VHH with A39Y, N53R, E55N, N56Y, T68V, H99Y, S107L
For B25, the Kd in the experiment with CDH17 [2] came to 3.3 nM.

B26: CDH17_vhh_0644 (VHH)
VHH: B1 VHH with N53R, E55N, S60R, T68V, H99Y, G101V
The molecule B26 showed a Kd with CDH17 [2] of 3.32 nM.

B27: CDH17_vhh_0263 (VHH)
VHH: B1 VHH with N53R, E55N, N56Y, T68V, H99Y
B27 showed a Kd with CDH17 [2] of 3.94 nM.

B28: CDH17_vhh_0688 (VHH)
VHH: B1 VHH with N53R, E55N, S62D, H99Y, G101N
As to B28, the affinity in the experiment with CDH17 [2], expressed as Kd, was 5.43 nM.

B29: CDH17_vhh_0676 (VHH)
VHH: B1 VHH with N53R, E55N, S62D, H99Y, G101T
Molecule B29 displayed a Kd with CDH17 [2] of 4.36 nM.

B30: CDH17_vhh_0262 (VHH)
VHH: B1 VHH with N53R, E55N, S62T, H99Y
For the molecule B30, binding with CDH17 [2] was put at a Kd of 5.14 nM.

B31: CDH17_vhh_0952 (VHH)
VHH: B1 VHH with N53R, E55N, S62D, H99Y, G101N, S107L
B31 registered an equilibrium dissociation constant (Kd) with CDH17 [2] of 2.61 nM.

B32: CDH17_vhh_0372 (VHH)
VHH: B1 VHH with S51D, N53R, E55N, H99Y
B32 came in with a Kd in the experiment with CDH17 [2] of 4.85 nM.

B33: CDH17_vhh_0259 (VHH)
VHH: B1 VHH with A39Y, N53R, E55N, H99Y
Regarding B33, in the experiment with CDH17 [2], binding was characterised by a dissociation constant (Kd) of 4.75 nM.

B34: CDH17_vhh_0945 (VHH)
VHH: B1 VHH with N53R, E55N, M64H, H99Y, G101V, S107L
On to B34, for which binding with CDH17 [2] was put at a Kd of 2.15 nM.

B35: CDH17_vhh_0613 (VHH)
VHH: B1 VHH with N53R, H99Y
On to B35, for which, in the experiment with CDH17 [2], the affinity, expressed as Kd, was 4.85 nM.

B36: CDH17_vhh_0674 (VHH)
VHH: B1 VHH with N53R, E55N, S62T, H99Y, S107K
With B36, the Kd in the experiment with CDH17 [2] turned out to be 3.79 nM.

B37: CDH17_vhh_0650 (VHH)
VHH: B1 VHH with N53R, E55N, S60R, H99Y, R103K, S107L
B37 registered a Kd in the experiment with CDH17 [2] of 2.45 nM.

B38: CDH17_vhh_0672 (VHH)
VHH: B1 VHH with N53R, E55N, M64H, H99Y, S107L
B38 gave a Kd with CDH17 [2] of 3.76 nM.

B39: CDH17_vhh_0675 (VHH)
VHH: B1 VHH with N53R, E55N, S62T, H99Y, S107A
The molecule B39 had a Kd with CDH17 [2] of 3.89 nM.

B40: CDH17_vhh_0156 (BHB156) (VHH)
VHH: B1 VHH with N53R, E55N, H99Y
B40 had a Kd in the experiment with CDH17 [2] of 7.59 nM.

What is called Kd is the concentration at which binding is half-saturated. Higher therefore signals weaker binding.
